Source: patent publication US20240109974A1 (SHANDONG SIMCERE BIOPHARMACEUTICAL, published 2024)
Changes are numbered by the printed parent chain.

B1: 001-Hu5 (antibody, V domains shown)
VH: EVQLVESGGGLVQPGGSLRLSCAASGFAFSTYDLSWVRQAPGKGLEWVAYINNGGISTYYSDTVKGRFTISRDNAKNTLYLQMNSLRAEDTAVYYCVRGPFYGSANYFDYWGQGTLVTVSS
VL: DIQMTQSPSSLSASVGDRVTITCRTSESIYSNLPWYQQKPGKSPKLLVYDATKLAEGVPSRFSGSGSGTDYTLTISSLQPEDFATYYCQHFWVTPWTFGQGTKVEIK
notes: Humanized form of #001; also called VH1 + VL4
B2: 001-Hu4 (antibody, V domains shown)
VH: B1 VH with T78S
VL: B1 VL
notes: Humanized form of #001; also called VH2 + VL4
B3: 001-Hu3 (antibody, V domains shown)
VH: B1 VH
VL: B1 VL with S43A, V48I
notes: Humanized form of #001; also called VH1 + VL3
B4: 001-Hu2 (antibody, V domains shown)
VH: B1 VH with T78S
VL: B1 VL with V48I, Y71F
notes: Humanized form of #001; also called VH2 + VL2
B5: 001-Hu1 (antibody, V domains shown)
VH: B1 VH
VL: B1 VL with S43A, V48L
notes: Humanized form of #001; also called VH1 + VL1
B6: 219-Hu3 (antibody, V domains shown)
VH: QVQLVQSGAEVKKPGSSVKVSCKASGYSFTNYWMNWVRQAPGQGLEWMGMIHPSDTETRLNQNFKDRVTITADKSTSTAYMELSSLRSEDTAVYYCARGEGLGAARSVSMDYWGQGTLVTVSS
VL: DIQMTQSPSSLSASVGDRVTITCRASQDISNYLNWYQQKPDGTVKLLIYYTAILHSGVPSRFSGSGSGTDYSLTISSLQPEDFATYFCQQGNTLPWTFGQGTKVEIK
notes: also called VH5 + VL5
B7: 219-Hu4 (antibody, V domains shown)
VH: B6 VH with R38K, M48I, R67K, V68A, I70L, A72V
VL: B6 VL
notes: also called VH6 + VL5
B8: 219-Hu2 (antibody, V domains shown)
VH: B6 VH with R67K, V68A
VL: B6 VL
notes: also called VH4 + VL5
B9: 219-Hu5 (antibody, V domains shown)
VH: B6 VH with A72V
VL: B6 VL
notes: also called VH7 + VL5
B10: 219-Hu1 (antibody, V domains shown)
VH: B6 VH with S16A, G44R, A72R, K74T, T76A
VL: B6 VL
notes: also called VH3 + VL5

Legend:
[1] = biological target: T1, human TNFR2 (Novoprotein, Cat #C830) (human, UniProt P20333 23-257, limits assumed); assay: competition ELISA, competitor human TNFα-Biotin; IC50 against 001-WT
T1 construct: construct not described; also called human TNFR2 protein
T1 sequence (looked up): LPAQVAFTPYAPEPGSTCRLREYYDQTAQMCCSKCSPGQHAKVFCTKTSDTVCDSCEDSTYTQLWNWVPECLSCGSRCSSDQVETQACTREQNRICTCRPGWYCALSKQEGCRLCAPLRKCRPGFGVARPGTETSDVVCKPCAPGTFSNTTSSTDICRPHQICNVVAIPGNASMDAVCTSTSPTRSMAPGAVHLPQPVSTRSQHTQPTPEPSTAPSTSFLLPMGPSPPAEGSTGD
Method: (§1) 1 μg/ml human TNFR2 (Novoprotein, Cat #C830) was pre-coated with 100 μl/well […] in an ELISA plate. All the test TNFR2 antibodies were subjected to 2.5-fold gradient dilution from the highest concentration of 30 μg/ml; the diluted antibodies were mixed with 15 ng/ml human TNFα-Biotin (Acro Biosystem, Cat #TNA-H82E3) in equal volume, respectively; the resulting mixture was added to the ELISA plate at 100 μl/well, and incubated with shaking at room temperature for 2.0 hours. The plate was washed, and then a Streptavidin-HRP working solution (diluted at 1:10000) was added at 100 μl/well, and the mixture was incubated with shaking at room temperature for 40 minutes. The plate was washed again, and then the substrate TMB of HRP was added to develop colour. A stop solution was added to stop the reaction, and then a microplate reader (MD 13) was used to read the absorbance value. The inhibitory curve of an antibody was drawn with antibody concentration as the abscissa and corresponding OD value as the ordinate, and fitted with four parameters (GraphPad Prism9) to calculate the IC50 value. The smaller the IC50 value, the stronger the ability of an antibody to inhibit the binding of human TNFα to human TNFR2. The blocking effect of a humanized antibody was normalized to its corresponding human-murine chimeric antibody WT. The higher the percentage value, the better the inhibitory effect of the humanized antibody.

[2] = biological target: T2, human TNFR2 on the surface of CHO-TNFR2 cells (human, UniProt P20333 23-461); assay: competition flow cytometry on CHO-TNFR2 cells, competitor TNFα-biotin; IC50 against 001-WT
T2 construct: whole, on cells
T2 sequence (looked up): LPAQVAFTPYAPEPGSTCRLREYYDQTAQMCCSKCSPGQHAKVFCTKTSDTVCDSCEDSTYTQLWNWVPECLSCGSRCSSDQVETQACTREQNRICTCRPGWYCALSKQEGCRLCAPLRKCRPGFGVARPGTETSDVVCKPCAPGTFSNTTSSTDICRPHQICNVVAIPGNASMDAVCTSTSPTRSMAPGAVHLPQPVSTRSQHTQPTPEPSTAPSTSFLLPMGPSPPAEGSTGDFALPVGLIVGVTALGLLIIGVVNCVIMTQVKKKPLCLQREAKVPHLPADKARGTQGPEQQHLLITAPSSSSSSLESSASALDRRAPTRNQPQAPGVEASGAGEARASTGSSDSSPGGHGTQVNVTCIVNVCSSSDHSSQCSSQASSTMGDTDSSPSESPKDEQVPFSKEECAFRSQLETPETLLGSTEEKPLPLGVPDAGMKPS
Method: CHO stable cells highly expressing human TNFR2 were used for the experiment (the same as CHO-TNFR2 in Example 4). The CHO-TNFR2 cells were digested, washed twice with DPBS, then stained with Live/Dead (L/D) (20 minutes at room temperature), and plated at a density of 1×10⁵ cells/50 μl/well. A test anti-TNFR2 antibody was diluted to 6 μg/ml with a staining buffer as the starting concentration: the antibody was subjected to 3.33-fold gradient dilution, with a total of 7 concentration points. The diluted antibody was added to the plated cells at 50 μl/well, and the mixture was mixed well by gentle pipetting, and incubated at 4° C. for 30 minutes. Then the diluted 100 ng/ml of human TNFα-biotin was added at 100 μl/well, and the mixture was mixed well by gentle pipetting, and then incubated at 4° C. for 30 minutes. The mixture was washed twice with a staining buffer, and then 0.12 μg/ml PE-streptavidin (BioLegend, Cat #405204) was added at 100 μl/well; the resulting mixture was incubated at 4° C. for 30 minutes. The mixture was washed twice with a staining buffer, and then 150 μl of staining buffer was added to resuspend the cells; signals were detected by a flow cytometer (Thermo Attune NxT). The inhibitory curve of an antibody was drawn with antibody concentration as the abscissa and corresponding MFI value as the ordinate, and fitted with four parameters (GraphPad Prism9) to calculate the IC50 value. The smaller the IC50 value, the stronger the ability of an antibody to inhibit the binding of human TNFα to human TNFR2. The blocking effect of a humanized antibody was normalized to its corresponding human-murine chimeric WT antibody. The higher the percentage value, the better the inhibitory effect of the humanized antibody.

[3] = biological target: T3, Human TNFR2-His (Sino 10417-H08H) (human, UniProt P20333 23-257); assay: ELISA, human TNFR2-His coated; EC50 against 001-WT
T3 construct: Bought protein; also called recombinant human TNFR2 protein; not shown: His tag
T3 sequence (looked up): T1 sequence (looked up)
Method: The test humanized antibody against TNFR2 (as described in Example 1, the antibody was comprised of variable regions linked to IgG-Fc; the WT chimeric antibody also adopted the IgG-Fc structure) was subjected to 3.33-fold gradient dilution, loaded with 100 μl/well, and incubated with shaking at room temperature for 1.5 hours. The plate was washed, and then a working solution of murine anti-human IgG Fc-HRP (diluted at 1:10000) was added, loaded with 100 μl/well, and incubated with shaking at room temperature for 1.0 hour. The plate was washed again, and then the substrate TMB of HRP was added to develop colour. A stop solution was added to stop the reaction, and then a microplate reader (MD 13) was used to read the absorbance value. The binding curve of an antibody was drawn with antibody concentration as the abscissa and corresponding OD value as the ordinate, and fitted with four parameters (GraphPad Prism9) to calculate the EC50 value. The smaller the EC50 value, the stronger the binding ability of an antibody to human/cynomolgus monkey TNFR2. The binding effect of a humanized antibody was normalized to its corresponding human-murine chimeric antibody WT (see SEQ ID NOs: 38-43 for the sequence). The higher the percentage value, the better the binding effect of the humanized antibody. The results of binding of an anti-TNFR2 antibody to a human TNFR2 protein are shown in FIG. 1 and Table 4, and the results of binding of an anti-TNFR2 antibody to cynomolgus monkey TNFR2 are shown in FIG. 2 and Table 4.

[4] = biological target: T1, human TNFR2 (Novoprotein, Cat #C830); assay: competition ELISA, competitor human TNFα-Biotin; AUC against 219-WT
Method: as §1

Binder	% Relative activity (WT antibody/test antibody) [1]	% Relative activity (WT antibody/test antibody) [2]	% Relative activity (WT antibody/test antibody) [3]	% Relative activity (WT antibody/test antibody) [4]
B1	96.5%	86.2%	100%	
B2	105%	92.3%	109%	
B3	105%	100%	101%	
B4	82.8%	84.3%	102%	
B5	94.7%	98.3%	104%	
B6				103%
B7				105%
B8				104%
B9				106%
B10				105%
